Two molecules from patent US12144843B2, “Methods and compositions for modulating myofibroblast activities” (THE REGENTS OF THE UNIVERSITY OF CALIFORNIA, priority 2011, dated 2024) can be followed below.

Entries after “also recorded” stand apart in the source; their conditions may differ.

One test concerns myofibroblasts. Put plainly: myofibroblast apoptosis. In kind it is cell-based. The note with it: for myofibroblast apoptosis: N=6. The source says:
N=6. *, P<0.05; **, P<0.05.
(§1) Taken together, FMOD not only promotes TGF-β1-induced myofibroblast differentiation and contractility, but also accelerates myofibroblast clearance—resulting in lack of myofibroblast persistence in remodeling stage of FMOD-treated wounds.

A further test concerns RDF. Put plainly: in vitro collagen gel contraction. The class given is cell-based, rat. The note with it: FMOD alone; N=6. From the text:
(§2) Activity level of myofibroblast is related to the activity of fibromodulin. Fibromodulin can promote myofibroblast differentiation and apoptosis.

The subject of another test is adult rat skin wounds. Put plainly: scar formation and tensile strength of adult rat skin wounds. In kind it is in vivo.
From the text: as §1

The test system of test [1] is adult rat wounds. Briefly: α-SMA-positive myofibroblasts in wounds. In kind it is in vivo. As to conditions: FMOD-treated wounds; day 14 post injury.
From the text: as §1

The test system of test [2] is adult rat wounds. Put plainly: PCR array assay of gene expression in adult rat wounds. In kind it is in vivo. As to conditions: for expression of α-SMA in wounds: FMOD-treated adult rat wounds. From the text:
Gene expression is normalized to unwounded skin (dashed lines). N=9 wounds from 9 animals. **, P<0.05.
Gene expression is normalized to unwounded skin (dashed lines). N=9 wounds from 9 animals. **, P<0.05

Another test concerns myofibroblast. Put plainly: immunofluorescent (IF) staining for α-SMA stress fibers, myofibroblast differentiation in vitro. In kind it is cell-based. As to conditions: FMOD combined with TGF-β1.
From the text: Formation of stress fibers stained strongly for α-SMA are indicated by yellow arrows. Scale bar=100 μm.
as §2

Test [3] concerns rat dermal fibroblast (RDF). Put plainly: western blotting and qRT-PCR of α-SMA expression in rat dermal fibroblasts. In kind it is cell-based.
From the text: Data are normalized to untreated RDFs at time 0 (dash lines). N=3. *, P<0.05.
as §2
In general terms: In western blotting, separated proteins are transferred to a membrane and probed.

As for “TGF-β1: transforming growth factor (TGF)-β1, myofibroblast differentiation inducing agent”, the “interleukin (IL)-1β-mediated apoptosis in myofibroblasts” value with myofibroblasts (effect of TGF-β1) is “completely blocked”.

B1: FMOD: fibromodulin protein; an example is SEQ ID NO:1 (Genebank NM 002023) (protein, listed as Homo sapiens)
chain: WTSLLLLAGLFSLSQAQYEDDPHWWFHYLRSQQSTYYDPYDPYPYETYEPYPYGVDEGPAYTYGSPSPPDPRDCPQECDCPPNFPTAMYCDNRNLKYLPFVPSRMKYVYFQNNQITSIQEGVFDNATGLLWIALHGNQITSDKVGRKVFSKLRHLERLYLDHNNLTRMPGPLPRSLRELHLDHNQISRVPNNALEGLENLTALYLQHNEIQEVGSSMRGLRSLILLDLSYNHLRKVPDGLPSALEQLYMEHNNVYTVPDSYFRGAPKLLYVRLSHNSLTNNGLASNTFNSSSLLELDLSYNQLQKIPPVNTNLENLYLQGNRINEFSISSFCTVVDVVNFSKLQVLRLDGNEIKRSAMPADAPLCLRLASLIEI
For the molecule B1, the “RDF contraction in collagen gel” value in the test with RDF was “minimal effects”. In addition, the collagen architecture entry with adult rat skin wounds (adult rat primary closure wounds) is reported as “more organized collagen architecture”. The scar size entry in the test with adult rat skin wounds (adult rat skin wounds, doses □ 0.4 mg/ml, day 14 post injury, compared to control) is “significant smaller scar; also recorded: significantly reduces”. The tensile strength entry in the test on adult rat skin wounds (adult rat wounds) is on record as “stronger tensile strength; also recorded: increasing tensile strength in a dose dependent manner”. Further, the α-SMA-positive myofibroblasts result in the test on adult rat wounds [1] is “diminished; also recorded: decreased”. Besides, the “expression of α-SMA in wounds” value is listed as “significantly upregulated” with adult rat wounds [2] (early 3-day time-point); “reduced” with adult rat wounds [2] (late 7- and 14-day time-points). The IL-1β expression result in the test on adult rat wounds [2] (day 3 and 7 adult rat wounds) is reported as “significantly stimulated”. In addition, in the test with adult rat wounds [2] (day 3 and 7 adult rat wounds, PCR array), the IL-10 expression result is “significantly stimulated”. For the same molecule, the myofibroblast apoptosis entry with myofibroblasts (FMOD alone) is on record as “promoted myofibroblast apoptosis as effectively as IL-1β; also recorded: induces myofibroblast apoptosis as effectively as IL-10”; in the test on myofibroblasts (in the presence of TGF-β1), “promoted apoptosis even in the presence of TGF-1β”. Further, the “myofibroblast differentiation and contractility in vitro” value with myofibroblast was “significantly enhanced”. The “α-smooth muscle actin (α-SMA) expression” value in test [3] (FMOD alone, western blotting and qRT-PCR, N=3) is reported as “no significant effect”. Also, the “TGF-β1-induced α-SMA expression” value in test [3] (FMOD in the presence of TGF-β1, N=3) was “significantly enhances”; in test [3] (FMOD in the presence of TGF-β1, N=3, listed as Fibromodulin) it was “significantly promoted”.
